The results in this text go back to US20250355001A1, “METHOD FOR DETECTING A TAU PROTEIN FRAGMENT IN A SAMPLE” (GTINVENT LIMITED, priority 2022, published 2025).

The target of experiment [1] is full length human tau protein 2N4R (hT40) (human) (UniProt P10636). The experiment is described as follows: Simoa sandwich, capture CB7, biotinylated detector.
Experiment [2] shares this target. The experiment is described as follows: Simoa sandwich, capture S1D12, biotinylated detector.
Experiment [3] has the same target. The experiment is described as follows: Simoa sandwich, capture S1G2, biotinylated detector.
The target is the same in experiment [4]. As to the kind of experiment: Simoa sandwich, capture Tau12, biotinylated detector.
Experiment [5] has the same target. The experiment is described as follows: SPR, hT40 immobilised, mAb analyte. In general terms: SPR reads the build-up and loss of mass on a sensor chip optically.

Chain of full length human tau protein 2N4R (hT40) (human) (P10636 other isoform, or with tags, fused parts or gaps limits assumed): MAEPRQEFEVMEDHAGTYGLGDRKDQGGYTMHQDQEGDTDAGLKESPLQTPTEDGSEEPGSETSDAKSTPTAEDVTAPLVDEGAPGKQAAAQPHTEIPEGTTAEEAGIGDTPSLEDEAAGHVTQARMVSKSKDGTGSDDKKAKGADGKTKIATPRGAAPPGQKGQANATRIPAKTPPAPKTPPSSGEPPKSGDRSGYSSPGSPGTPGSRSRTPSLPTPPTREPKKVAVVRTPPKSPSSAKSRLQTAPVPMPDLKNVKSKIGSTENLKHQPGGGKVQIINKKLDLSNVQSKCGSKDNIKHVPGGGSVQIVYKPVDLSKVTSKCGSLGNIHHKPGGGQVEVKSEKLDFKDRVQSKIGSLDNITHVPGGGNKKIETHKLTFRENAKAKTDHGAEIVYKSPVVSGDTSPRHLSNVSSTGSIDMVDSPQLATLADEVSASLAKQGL

BT2 (antibody): the Simoa limit of detection was determined as 0.75 pg/mL in experiment [1] and 0.32 pg/mL in experiment [2].

HT7 (antibody): the Simoa limit of detection was 2.2 pg/mL in experiment [1], 0.32 pg/mL in experiment [3], 0.32 pg/mL in experiment [2] and 2.2 pg/mL in experiment [4].

As a reminder, the Kd is the free concentration of one partner at which half of the binding sites on the other are occupied at equilibrium, for simple one-to-one binding. Read a low Kd as tighter binding. Tau12 mAb (antibody) had a Kd in experiment [5] of 1.44 nM. Moreover, the Simoa limit of detection in experiment [3] worked out at 1.6 pg/mL; in experiment [2], 0.75 pg/mL.

Tau46 (antibody): the Simoa limit of detection in experiment [1] and in experiment [3] was 2.2 pg/mL throughout.
